In US20090068103, “APTAMERS LABELED WITH 68GA” (published 2009):

Target: Tenascin-C (TN-C) (Homo sapiens, UniProt P24821 P24821:23-2201)
Assay: competition; filter competition vs 1 nM 99mTc-TTA1-MAG2, 2 nM TN-C; TBSMC pH 7.4, 1 mM CaCl2, 1 mM MgCl2, 37 C
Conditions: tags: none stated; chain copies: 6
Method: A competition filter binding assay was carried out in order to determine binding constants (EC₅₀). Samples of 2 nM human TN-C were incubated with 1 nM ^99mTc-TTA1-MAG₂ in TBSMC buffer (20 mM Tris, pH 7.4; 137 mM NaCl; 1 mM CaCl₂; 1 mM MgCl₂) and the binding competed with varying concentrations of unlabeled aptamer (see pipetting scheme in FIG. 9.1). Incubation was carried out at 37° C. for 15 min. Subsequently, the solutions were pipetted on a Minifold Device equipped with a supported nitrocellulose membrane and Whatman filter paper and were washed with buffer using vacuum. Residual radioactivity on the filter due to tenascin-C bound labeled aptamer was quantified using a Phosphorimager. EC₅₀ values were calculated using GraphPadPrism 3.02 (San Diego, Calif., USA) plotting one-side competition non-linear regression curves.

Chain of Tenascin-C (TN-C) (P24821 23-2201, one chain of several): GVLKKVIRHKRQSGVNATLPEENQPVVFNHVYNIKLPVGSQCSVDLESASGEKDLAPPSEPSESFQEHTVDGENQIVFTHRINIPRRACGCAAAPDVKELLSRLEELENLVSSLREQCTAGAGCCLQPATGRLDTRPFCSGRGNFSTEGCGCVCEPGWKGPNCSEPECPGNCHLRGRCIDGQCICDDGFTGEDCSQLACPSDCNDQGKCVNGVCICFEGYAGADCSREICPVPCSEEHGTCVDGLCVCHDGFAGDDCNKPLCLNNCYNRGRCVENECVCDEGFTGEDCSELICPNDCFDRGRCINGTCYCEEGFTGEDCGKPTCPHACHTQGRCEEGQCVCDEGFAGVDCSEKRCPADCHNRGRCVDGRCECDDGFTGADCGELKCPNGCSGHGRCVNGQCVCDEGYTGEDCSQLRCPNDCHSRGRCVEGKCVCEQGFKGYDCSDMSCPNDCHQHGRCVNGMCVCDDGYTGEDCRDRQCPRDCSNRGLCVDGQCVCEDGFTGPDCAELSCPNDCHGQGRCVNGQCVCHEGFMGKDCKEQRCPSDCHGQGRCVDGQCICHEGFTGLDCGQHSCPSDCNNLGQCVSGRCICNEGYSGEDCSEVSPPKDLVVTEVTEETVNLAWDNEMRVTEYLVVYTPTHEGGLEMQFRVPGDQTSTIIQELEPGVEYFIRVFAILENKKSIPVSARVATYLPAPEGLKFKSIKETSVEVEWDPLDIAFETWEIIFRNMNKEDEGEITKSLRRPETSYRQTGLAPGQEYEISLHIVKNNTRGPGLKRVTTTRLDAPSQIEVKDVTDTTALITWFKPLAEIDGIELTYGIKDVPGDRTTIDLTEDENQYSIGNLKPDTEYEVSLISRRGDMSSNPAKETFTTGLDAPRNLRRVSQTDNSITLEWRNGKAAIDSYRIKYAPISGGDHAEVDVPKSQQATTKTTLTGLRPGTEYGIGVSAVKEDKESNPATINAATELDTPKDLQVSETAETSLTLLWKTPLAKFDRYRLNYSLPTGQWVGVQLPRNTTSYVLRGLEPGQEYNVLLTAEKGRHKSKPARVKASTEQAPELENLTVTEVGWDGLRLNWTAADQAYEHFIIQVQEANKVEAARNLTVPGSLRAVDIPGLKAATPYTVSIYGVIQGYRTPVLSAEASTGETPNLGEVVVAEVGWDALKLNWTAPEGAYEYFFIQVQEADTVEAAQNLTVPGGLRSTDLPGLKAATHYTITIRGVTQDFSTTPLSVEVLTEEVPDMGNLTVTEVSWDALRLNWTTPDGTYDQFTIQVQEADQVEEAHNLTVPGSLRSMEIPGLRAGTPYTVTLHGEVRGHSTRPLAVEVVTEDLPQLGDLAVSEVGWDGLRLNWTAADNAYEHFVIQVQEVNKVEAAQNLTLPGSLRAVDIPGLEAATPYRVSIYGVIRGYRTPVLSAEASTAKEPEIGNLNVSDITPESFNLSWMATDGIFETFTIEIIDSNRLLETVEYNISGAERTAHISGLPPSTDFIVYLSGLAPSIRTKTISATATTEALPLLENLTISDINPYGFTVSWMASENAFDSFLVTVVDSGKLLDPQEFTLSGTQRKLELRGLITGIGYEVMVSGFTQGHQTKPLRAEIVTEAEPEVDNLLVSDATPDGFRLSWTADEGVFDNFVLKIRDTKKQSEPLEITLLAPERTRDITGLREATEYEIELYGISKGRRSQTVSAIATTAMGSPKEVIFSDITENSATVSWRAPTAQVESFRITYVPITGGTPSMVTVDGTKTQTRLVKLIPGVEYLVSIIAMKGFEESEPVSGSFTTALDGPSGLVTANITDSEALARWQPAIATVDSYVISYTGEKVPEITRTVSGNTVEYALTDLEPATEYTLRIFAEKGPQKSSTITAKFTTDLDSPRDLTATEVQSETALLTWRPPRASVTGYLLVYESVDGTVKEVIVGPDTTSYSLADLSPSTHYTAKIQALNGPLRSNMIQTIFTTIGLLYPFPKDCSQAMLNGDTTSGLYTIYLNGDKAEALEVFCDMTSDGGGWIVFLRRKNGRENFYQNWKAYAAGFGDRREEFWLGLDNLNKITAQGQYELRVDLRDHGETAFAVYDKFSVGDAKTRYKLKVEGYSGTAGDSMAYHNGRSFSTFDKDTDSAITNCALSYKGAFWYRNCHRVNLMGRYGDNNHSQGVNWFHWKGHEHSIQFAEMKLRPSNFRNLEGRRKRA

B1: TTA4 (ssRNA)
RNA: GGGAGGACGCGUCGCCGUAAUGGAUGUUUUGCUCCC
modifications: mGmGmG mAmGG mAfCmG-(CH2CH2O)6-fCGfU fCGfC fCGfU mAmAfU mGmGmA fUmGfU fUfUfU mGfCfU fC(C6-NH2)CfC (m=2'-OMe, f=2'-F); 3'-3'-T cap
EC50: 20 nM

B2: TTA7 (ssRNA)
RNA: B1 RNA
modifications: LGLGLG LALGmG mAfCrG-(CH2OCH2)6-fCGfU fCGfC fCGfU mAmAfU mGmGmA fUmGfU fUfUfU mGLCLU LCLCLC-(CH2)6NH2-3' (m=2'-OMe, f=2'-F, L prefix as printed, LNA inferred, r=ribo)
EC50: 2 nM

B3: TTA8 (ssRNA)
RNA: B1 RNA
modifications: mGmGmG mAmGmG mAfCrG-(CH2OCH2)6-fCGfU fCGfC fCGfU mAmAfU mGmGmA fUmGfU fUfUfU mGmCmU mCmCmC-(CH2)6NH2-3' (m=2'-OMe, f=2'-F, r=ribo)
EC50: 14 nM

B4: TTA5 (ssRNA)
RNA: TAGGGAGGACGCGUCGCCGUAAUGGAUGUUUUGCUCCCUG
modifications: 5'-(aminomodifier C2 dT)-mA mGmGmG mAmGG mAfCmG-(CH2CH2O)6-fCGfU fCGfC fCGfU mAmAfU mGmGmA fUmGfU fUfUfU mGfCfU fCfCfC fUmG (m=2'-OMe, f=2'-F); 3'-3'-T cap
EC50: 39 nM

B5: TTA3 (ssRNA)
RNA: GGGAGGACGCGUCGCCGUAAUGGAUGUUUUGCUCCCUG
modifications: 5'-NH2-C6; mGmGmG mAmGG mAfCmG-(CH2CH2O)6-fCGfU fCGfC fCGfU mAmAfU mGmGmA fUmGfU fUfUfU mGfCfU fCfCfC UG (m=2'-OMe, f=2'-F); 3'-3'-T cap
EC50: 19 nM

B6: TTA6 (ssRNA)
RNA: B5 RNA
modifications: 5'-NH2-C6-O-SPO-O (PS linkage); mGmGmG mAmGG mAfCmG-(CH2CH2O)6-fCGfU fCGfC fCGfU mAmAfU mGmGmA fUmGfU fUfUfU mGfCfU fCfCfC fUmG (m=2'-OMe, f=2'-F); 3'-3'-T cap
EC50: 14 nM
